Source: publication PMC6062542, “Structural and Biochemical Characterization of AaL, a Quorum Quenching Lactonase with Unusual Kinetic Properties” (Scientific Reports, 2018)

T1: AaL (Alicyclobacillus acidoterrestris, UniProt T0BMH6)
T1 construct: gene K1I37_05175; codon-optimized synthetic gene; N-terminal Strep tag (WSHPQFEK) + TEV site (ENLYFQS), tag cleaved with TEV; homodimer
T1 sequence (T0BMH6 1-282): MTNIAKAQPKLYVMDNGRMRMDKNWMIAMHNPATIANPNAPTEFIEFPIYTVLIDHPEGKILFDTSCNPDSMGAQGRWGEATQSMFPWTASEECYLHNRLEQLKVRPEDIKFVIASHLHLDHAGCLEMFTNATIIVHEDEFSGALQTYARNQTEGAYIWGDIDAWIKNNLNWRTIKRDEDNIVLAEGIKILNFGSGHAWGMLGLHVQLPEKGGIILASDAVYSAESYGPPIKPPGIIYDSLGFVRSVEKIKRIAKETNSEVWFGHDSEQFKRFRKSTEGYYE

B1: AaL (Alicyclobacillus acidoterrestris ATCC 49025) (protein)
chain: MTNIAKAQPKLYVMDNGRMRMDKNWMIAMHNPATIANPNAPTEFIEFPIYTVLIDHPEGKILFDTSCNPDSMGAQGRWGEATQSMFPWTASEECYLHNRLEQLKVRPEDIKFVIASHLHLDHAGCLEMFTNATIIVHEDEFSGALQTYARNQTEGAYIWGDIDAWIKNNLNWRTIKRDEDNIVLAEGIKILNFGSGHAWGMLGLHVQLPEKGGIILASDAVYSAESYGPPIKPPGIIYDSLGFVRSVEKIKRIAKETNSEVWFGHDSEQFKRFRKSTEGYYE
notes: codon-optimized synthetic gene; N-terminal Strep tag (WSHPQFEK) + TEV site (ENLYFQS), tag cleaved with TEV; homodimer

What was measured:
[1] = molecular target: T1, AaL; test: X-ray crystal structure, […] Å, crystal soak; type: binding; conditions: soaked 10 min with 20 mM C6-AHL; active site, two cobalt cations; modelled occupancy 0.7
[2] = substrate: O=C1CCCO1; test: purified protein; type: biochemical, Alicyclobacillus acidoterrestris; conditions: 2.5 mM Bicine pH 8.3, 150 mM NaCl, 0.2 mM cresol purple, 0.5% DMSO, 0.2 mM CoCl2, room temperature
[3] = substrate: CCCC1CCC(=O)O1; test: purified protein; type: biochemical, Alicyclobacillus acidoterrestris; conditions: 2.5 mM Bicine pH 8.3, 150 mM NaCl, 0.2 mM cresol purple, 0.5% DMSO, 0.2 mM CoCl2, room temperature
[4] = substrate: CCCCCC1CCCC(=O)O1; test: purified protein; type: biochemical, Alicyclobacillus acidoterrestris; conditions: 2.5 mM Bicine pH 8.3, 150 mM NaCl, 0.2 mM cresol purple, 0.5% DMSO, 0.2 mM CoCl2, room temperature
[5] = substrate: O=C1CCCCO1; test: purified protein; type: biochemical, Alicyclobacillus acidoterrestris; conditions: 2.5 mM Bicine pH 8.3, 150 mM NaCl, 0.2 mM cresol purple, 0.5% DMSO, 0.2 mM CoCl2, room temperature

Molecule | X-ray crystal structure, 1.8 Å, crystal soak [1] | Km [2] [µM] | kcat [2] [s⁻¹] | kcat/Km [2] [M⁻¹ s⁻¹] | Km [3] [µM] | Km [4] [µM] | kcat [4] [s⁻¹] | kcat/Km [4] [M⁻¹ s⁻¹] | Km [5] [µM] | kcat [5] [s⁻¹] | kcat/Km [5] [M⁻¹ s⁻¹]
CCCCCC(=O)N[C@H]1CCOC1=O [C6-AHL] | the structure of AaL bound to C6-AHL could be solved |  |  |  |  |  |  |  |  |  | 
B1 |  | 171.0 ± 36.1 | 23.5 ± 1.7 | 140000 ± 30000 | 36.9 ± 8.9 | 18.5 ± 0.4 | 8.4 ± 0.6 | 450000 ± 100000 | 18.7 ± 0.4 | 8.4 ± 0.4 | 450000 ± 90000
